± gives the standard error. For some of these results: Fewer inactive variants are shown than the library holds.
B1: glmS ribozyme (parent)
chain: AUAAAAGCGCCAGAACUACAGAAAUGUAGUUGACGAGGAGGAGGUUUAUCGAAUUUUCGGCGGAUGCCUCCAAA

Assays:
Conditions in all cases: with glucosamine-6-phosphate
glucosamine-6-phosphate [1] = variants of: B1; assay: kcat; higher = faster cleavage; RNA array
How it was run: (§1)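 Barcoded ribozyme variants on sequenced MiSeq chips were transcribed in situ by E. coli RNA polymerase and followed at 37 °C through a hybridised Cy3 probe. Glucosamine-6-phosphate at 40 μM to 10 mM in HEPES/KCl/Mg(OAc)2 buffer was flowed in, and tiles were imaged over ~14 h. Signals were normalised to baseline and to non-cleaving reference variants, and per-tile medians were fit to one- or two-exponential decays to give kobs. Weighted Michaelis–Menten fits across concentrations gave kcat and KM.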

glucosamine-6-phosphate [2] = variants of: B1; assay: self-cleavage kobs at 160 uM GlcN6P; higher = faster cleavage; RNA array
How it was run: as §1

glucosamine-6-phosphate [3] = variants of: B1; assay: self-cleavage kobs at 640 uM GlcN6P; higher = faster cleavage; RNA array
How it was run: as §1

glucosamine-6-phosphate [4] = variants of: B1; assay: self-cleavage kobs at 2500 uM GlcN6P; higher = faster cleavage; RNA array
How it was run: as §1

glucosamine-6-phosphate [5] = variants of: B1; assay: self-cleavage kobs at 10000 uM GlcN6P; higher = faster cleavage; RNA array
How it was run: as §1

glucosamine-6-phosphate [6] = variants of: B1; assay: KM; higher = weaker cofactor use; RNA array
How it was run: as §1

glucosamine-6-phosphate [7] = variants of: B1; assay: self-cleavage kobs at 40 uM GlcN6P; higher = faster cleavage; RNA array
How it was run: as §1

| Variant | kcat (glucosamine-6-phosphate [1]) | self-cleavage kobs at 160 uM GlcN6P (glucosamine-6-phosphate [2]) | self-cleavage kobs at 640 uM GlcN6P (glucosamine-6-phosphate [3]) | self-cleavage kobs at 2500 uM GlcN6P (glucosamine-6-phosphate [4]) | self-cleavage kobs at 10000 uM GlcN6P (glucosamine-6-phosphate [5]) | KM (glucosamine-6-phosphate [6]) | self-cleavage kobs at 40 uM GlcN6P (glucosamine-6-phosphate [7]) |
| --- | --- | --- | --- | --- | --- | --- | --- |
| A15U G29A | 0.00194 ± 0.00084 s⁻¹ | 7.32e-05 ± 1.6e-05 s⁻¹ | 0.000218 ± 4.3e-05 s⁻¹ | 0.00039 ± 0.0001 s⁻¹ | 0.00142 ± 0.0002 s⁻¹ | – | – |
| A12G C67U | 0.000655 ± 3.4e-05 s⁻¹ | – | 9.59e-05 ± 9.7e-06 s⁻¹ | 0.000297 ± 5.2e-05 s⁻¹ | 0.000475 ± 4.3e-05 s⁻¹ | 3.65 ± 0.31 mM | – |
| A14G C50U | 0.000229 ± 4.9e-05 s⁻¹ | – | 3.25e-05 ± 1.6e-05 s⁻¹ | 5.19e-05 ± 9.6e-06 s⁻¹ | 0.000128 ± 1.5e-05 s⁻¹ | 7.96 ± 3 mM | – |
| C11U A14U | 0.00134 ± 0.00035 s⁻¹ | 9.95e-05 ± 1.2e-05 s⁻¹ | 0.000266 ± 3.5e-05 s⁻¹ | 0.00104 ± 0.00013 s⁻¹ | 0.000984 ± 0.00014 s⁻¹ | 2.13 ± 0.81 mM | – |
| A52U U57A | 0.00351 ± 0.00067 s⁻¹ | 9.27e-05 ± 1.9e-05 s⁻¹ | 0.000344 ± 6.8e-05 s⁻¹ | 0.00123 ± 0.00025 s⁻¹ | 0.00213 ± 0.00033 s⁻¹ | 5.9 ± 1.5 mM | – |
| U54C U55C | 0.014 ± 0.0045 s⁻¹ | 0.000636 ± 8.9e-05 s⁻¹ | 0.00279 ± 0.00037 s⁻¹ | 0.00663 ± 0.0011 s⁻¹ | 0.0111 ± 0.0019 s⁻¹ | 2.72 ± 1.1 mM | 0.000294 ± 4.1e-05 s⁻¹ |
| A52U G59A C68G | < 1e-05 s⁻¹ | – | – | – | – | – | – |
| U55C C70G | < 1e-05 s⁻¹ | – | – | – | – | – | < 1e-05 s⁻¹ |
| A48U C67U | 0.00022 ± 1.3e-05 s⁻¹ | – | 5.32e-05 ± 7.6e-06 s⁻¹ | 0.000135 ± 1.7e-05 s⁻¹ | 0.00018 ± 2e-05 s⁻¹ | 1.89 ± 0.23 mM | – |
| U30A U55A | 0.0085 ± 0.0022 s⁻¹ | 0.000501 ± 0.00012 s⁻¹ | – | 0.00803 ± 0.0017 s⁻¹ | 0.00686 ± 0.00088 s⁻¹ | 1.85 ± 0.74 mM | 0.000212 ± 3.2e-05 s⁻¹ |
| G41A U47G | 0.00145 ± 0.00012 s⁻¹ | 6.46e-05 ± 2.1e-05 s⁻¹ | 0.00021 ± 4e-05 s⁻¹ | 0.000656 ± 0.00011 s⁻¹ | 0.00104 ± 0.00017 s⁻¹ | 3.54 ± 0.47 mM | – |
| A14C G40A | 0.00106 ± 0.00042 s⁻¹ | 8.2e-05 ± 1.6e-05 s⁻¹ | 0.000371 ± 5.8e-05 s⁻¹ | 0.000306 ± 8.2e-05 s⁻¹ | 0.00112 ± 0.00011 s⁻¹ | – | 3.61e-05 ± 8.7e-06 s⁻¹ |
| A12G U55C | 0.00114 ± 0.00024 s⁻¹ | 4.44e-05 ± 7.8e-06 s⁻¹ | 0.000118 ± 1.7e-05 s⁻¹ | 0.000461 ± 7.4e-05 s⁻¹ | 0.000755 ± 9.7e-05 s⁻¹ | 4.74 ± 1.4 mM | – |
| U31C G66A | 0.00283 ± 0.00065 s⁻¹ | 0.000128 ± 4.7e-05 s⁻¹ | 0.000724 ± 8.4e-05 s⁻¹ | 0.00127 ± 0.00017 s⁻¹ | 0.00266 ± 0.00027 s⁻¹ | 2.03 ± 0.75 mM | 6.95e-05 ± 9.4e-06 s⁻¹ |
